# Experiments:
# [1] = molecular target: bovine serum albumin (BSA) (UniProt P02769)
# [2] = system: myelin basic protein (MBP)
# ovalbumin = ovalbumin (UniProt P01012)
# [3] = system: recombinant serum albumin
# β-casein = molecular target: T1, β-casein (UniProt P02666)
# T1 sequence: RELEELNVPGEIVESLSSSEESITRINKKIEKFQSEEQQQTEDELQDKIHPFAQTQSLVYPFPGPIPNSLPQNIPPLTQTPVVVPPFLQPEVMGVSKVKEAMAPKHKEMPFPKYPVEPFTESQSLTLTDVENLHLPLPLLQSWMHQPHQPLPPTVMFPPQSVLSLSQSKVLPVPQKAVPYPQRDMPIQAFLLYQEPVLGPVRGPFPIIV
# Sequence of ovalbumin (P01012 2-386): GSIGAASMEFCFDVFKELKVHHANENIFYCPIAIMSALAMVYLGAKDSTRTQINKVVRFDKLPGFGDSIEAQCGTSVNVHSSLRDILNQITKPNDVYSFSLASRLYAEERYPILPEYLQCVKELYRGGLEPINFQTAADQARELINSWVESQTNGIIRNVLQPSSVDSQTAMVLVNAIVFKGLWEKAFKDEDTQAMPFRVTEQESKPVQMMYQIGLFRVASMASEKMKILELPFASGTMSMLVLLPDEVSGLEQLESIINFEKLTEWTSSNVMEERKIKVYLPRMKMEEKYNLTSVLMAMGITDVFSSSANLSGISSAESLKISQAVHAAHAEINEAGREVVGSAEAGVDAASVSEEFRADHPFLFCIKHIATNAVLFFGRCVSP
# Sequence of bovine serum albumin (BSA) (P02769 25-607): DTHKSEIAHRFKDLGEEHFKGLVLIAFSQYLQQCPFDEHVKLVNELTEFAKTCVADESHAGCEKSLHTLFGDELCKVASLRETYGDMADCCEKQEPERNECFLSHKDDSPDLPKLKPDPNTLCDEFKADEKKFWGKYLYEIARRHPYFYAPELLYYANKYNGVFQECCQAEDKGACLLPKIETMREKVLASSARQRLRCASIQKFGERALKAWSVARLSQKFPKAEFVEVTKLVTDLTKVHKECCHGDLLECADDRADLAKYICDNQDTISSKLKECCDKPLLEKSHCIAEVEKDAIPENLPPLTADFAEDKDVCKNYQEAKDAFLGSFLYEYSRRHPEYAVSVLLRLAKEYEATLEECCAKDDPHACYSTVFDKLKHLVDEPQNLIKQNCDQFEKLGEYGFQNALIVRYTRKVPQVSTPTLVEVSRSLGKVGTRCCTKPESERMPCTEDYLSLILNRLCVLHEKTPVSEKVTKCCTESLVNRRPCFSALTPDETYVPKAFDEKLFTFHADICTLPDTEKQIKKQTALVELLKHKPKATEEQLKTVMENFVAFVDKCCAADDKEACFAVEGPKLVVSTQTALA
substance,measurement,setting,value
recombinant 6×-His-TGase fusion protein of Streptomyces mobaraensis ATCC 29032,cross-linking of BSA5 peptide on SDS-PAGE,BSA5 peptide,increased amount of recombinant SM TGase corresponding to an increase in cross-linked (CL) BSA5 peptide
same,cross-linking of native protein,[1],there was no cross-linking
same,cross-linking of native protein,histone H3 protein,there was no cross-linking
same,cross-linking of native protein on SDS-PAGE,histone H3 protein,complete and partial cross-linking was both observed for native histine H3 protein under the condition tested
same,cross-linking of native protein,[2],there was no cross-linking
same,cross-linking of native protein,ovalbumin,there was no cross-linking
same,cross-linking of recombinant serum albumin on SDS-PAGE,[3],revealed a mixture of very high molecular weight polymers of different length
same,"cross-linking of β-amyloid (1-42) peptide on SDS-PAGE, 1 to 3 hours",β-amyloid peptide (1-42),can be cross-linked by the recombinant transglutaminase as shown as a smear of a mixture of cross-linked peptides
same,cross-linking of a mixture of β-casein and glucose oxidase on SDS-PAGE,β-casein,both protein species can be cross-linked by the purified recombinant SM TGase
same,cross-linking of β-casein on SDS-PAGE,β-casein,the cross-linked (CL) β-casein migrated as a smear on the SDS-PAGE gel indicating a mixture of high molecular weight polymers of different length
same,"cross-linking of β-casein on SDS-PAGE, 0 mM DTT",β-casein,had no cross-linking activity on β-casein
same,"cross-linking of β-casein on SDS-PAGE, about 2 mM DTT",β-casein,β-casein run as a mixture of cross-linked polymer and monomer
same,"cross-linking of β-casein on SDS-PAGE, about 10 mM DTT",β-casein,cross-linking of all detectable β-casein substrates in the reaction

# From patent publication US20040001848
